Substrate in the data set: CC(=O)N[C@H]1[C@H](Oc2ccc([N+](=O)[O-])cc2)O[C@H](CO)[C@@H](O)[C@@H]1O
The data set can be described thus: 4-nitrophenyl substrate hydrolysis assay. In kind it is biochemical, Aspergillus oryzae. To be noted: substrate concentrations around Km.

B1: β-N-acetylhexosaminidase (native form) (Aspergillus oryzae) (protein)
chain 1: VGVNPLPAPREISWGSSGPKSIAGELQLRTDSDSADGIVADAWNRAWETIVALRWVPAATEAPISSFEPFPTPTAGAS
chain 2: ASNSLQYVNVQVKDIEADLQHGVDESYTLDVEEDSDTITINAETVWGALHAFTTLQQLVISDGHGGLIIEEPVNIKDSPLYPYRGIMLDTGRNFVSLPKIFEQLEGMSLSKLNVLHWHIDDAQSWPIWVDVYPEMVKDAYSPHEIYSRNDVRNIVNYARARGIRVIPEIDMPSHSSSGWKQVDPEMVTCTDSWWSNDDWPLHTAVEPNPGQLDIIYNKTYEVVGNVYKELSDIFPDHWFHVGGDEIQPNCFNFSTHVTKWFAEDPSRTYHDLAQYWVDHAVPIFQNYSQERRLVMWEDIALSADNAHDVPKNIVMQSWNNGLEYISNLTARGYDVIVSSSDFLYLDCGHGGFVTNDPRYNVMANPDANTPNFNYGGNGGSWCAPYKTWQRIYDYDFTLNLTETQAKHIIGATAPLWGEQVDDINVSSMFWPRAAALAELVWSGNRDANGNKRTTEMTQRILNFREYLVANGVQAQALVPKYCLQHPHACDLYRNQAAIQ
notes: native enzyme purified from culture medium of A. oryzae; secreted, fully N-glycosylated (six sites), dimer; GH20
With B1, the Km (native N-glycosylated form) stood at 450 µM.

B2: deglycosylated β-N-acetylhexosaminidase (Aspergillus oryzae) (protein)
chain 1: VGVNPLPAPREISWGSSGPKSIAGELQLRTDSDSADGIVADAWNRAWETIVALRWVPAATEAPISSFEPFPTPTAGAS
chain 2: ASNSLQYVNVQVKDIEADLQHGVDESYTLDVEEDSDTITINAETVWGALHAFTTLQQLVISDGHGGLIIEEPVNIKDSPLYPYRGIMLDTGRNFVSLPKIFEQLEGMSLSKLNVLHWHIDDAQSWPIWVDVYPEMVKDAYSPHEIYSRNDVRNIVNYARARGIRVIPEIDMPSHSSSGWKQVDPEMVTCTDSWWSNDDWPLHTAVEPNPGQLDIIYNKTYEVVGNVYKELSDIFPDHWFHVGGDEIQPNCFNFSTHVTKWFAEDPSRTYHDLAQYWVDHAVPIFQNYSQERRLVMWEDIALSADNAHDVPKNIVMQSWNNGLEYISNLTARGYDVIVSSSDFLYLDCGHGGFVTNDPRYNVMANPDANTPNFNYGGNGGSWCAPYKTWQRIYDYDFTLNLTETQAKHIIGATAPLWGEQVDDINVSSMFWPRAAALAELVWSGNRDANGNKRTTEMTQRILNFREYLVANGVQAQALVPKYCLQHPHACDLYRNQAAIQ
notes: same polypeptide as P1, native purification, enzymatically N-deglycosylated under native conditions (endoglycosidase H, leaving core GlcNAc, or N-glycanase)
Consider B2, for which the Km (deglycosylated form) turned out to be 710 µM.

These data come from paper PMC1885261, “Structure of the dimeric N-glycosylated form of fungal β-N-acetylhexosaminidase revealed by computer modeling, vibrational spectroscopy, and biochemical studies” (BMC Structural Biology, 2007).
